Where a chain is given by its changes, count along the chain named. Numbers in names are those of the source.
B1: P54AR4-83v2 A3C, NEM conjugate (designed binder, not shown: small tags and cut ends)
chain: LPCPKNLVVSEVTEDSARLSWDDPWAFYESFLIQYQESEKVGEAIVLTVPGSERSYDLTGLKPGTEYTVSIYGVHNVYKDTNMRGLPLSAIFTT
modifications: N-ethyl maleimide (NEM) on Cys 3
B2: P54AR4-83v2 A26C, NEM conjugate (designed binder, not shown: small tags and cut ends)
chain: B1 chain with C3A, A26C
modifications: N-ethyl maleimide (NEM) on Cys 26
B3: P54AR4-83v2 A90C, NEM conjugate (designed binder, not shown: small tags and cut ends)
chain: B1 chain with C3A, A90C
modifications: N-ethyl maleimide (NEM) on Cys 90
B4: P54AR4-83v2 D15C, NEM conjugate (designed binder, not shown: small tags and cut ends)
chain: B1 chain with C3A, D15C
modifications: N-ethyl maleimide (NEM) on Cys 15
B5: P54AR4-83v2 D22C, NEM conjugate (designed binder, not shown: small tags and cut ends)
chain: B1 chain with C3A, D22C
modifications: N-ethyl maleimide (NEM) on Cys 22
B6: P54AR4-83v2 D23C, NEM conjugate (designed binder, not shown: small tags and cut ends)
chain: B1 chain with C3A, D23C
modifications: N-ethyl maleimide (NEM) on Cys 23
B7: P54AR4-83v2 D80C, NEM conjugate (designed binder, not shown: small tags and cut ends)
chain: B1 chain with C3A, D80C
modifications: N-ethyl maleimide (NEM) on Cys 80
B8: P54AR4-83v2 E11C, NEM conjugate (designed binder, not shown: small tags and cut ends)
chain: B1 chain with C3A, E11C
modifications: N-ethyl maleimide (NEM) on Cys 11
B9: P54AR4-83v2 E14C, NEM conjugate (designed binder, not shown: small tags and cut ends)
chain: B1 chain with C3A, E14C
modifications: N-ethyl maleimide (NEM) on Cys 14
B10: P54AR4-83v2 E29C, NEM conjugate (designed binder, not shown: small tags and cut ends)
chain: B1 chain with C3A, E29C
modifications: N-ethyl maleimide (NEM) on Cys 29
B11: P54AR4-83v2 E39C, NEM conjugate (designed binder, not shown: small tags and cut ends)
chain: B1 chain with C3A, E39C
modifications: N-ethyl maleimide (NEM) on Cys 39
B12: P54AR4-83v2 E43C, NEM conjugate (designed binder, not shown: small tags and cut ends)
chain: B1 chain with C3A, E43C
modifications: N-ethyl maleimide (NEM) on Cys 43
B13: P54AR4-83v2 E53C, NEM conjugate (designed binder, not shown: small tags and cut ends)
chain: B1 chain with C3A, E53C
modifications: N-ethyl maleimide (NEM) on Cys 53
B14: P54AR4-83v2 F27C, NEM conjugate (designed binder, not shown: small tags and cut ends)
chain: B1 chain with C3A, F27C
modifications: N-ethyl maleimide (NEM) on Cys 27
B15: P54AR4-83v2 F31C, NEM conjugate (designed binder, not shown: small tags and cut ends)
chain: B1 chain with C3A, F31C
modifications: N-ethyl maleimide (NEM) on Cys 31
B16: P54AR4-83v2 G42C, NEM conjugate (designed binder, not shown: small tags and cut ends)
chain: B1 chain with C3A, G42C
modifications: N-ethyl maleimide (NEM) on Cys 42

Tests used:
[1] = target: T1, EGFR (form used in the assay not stated) (human, UniProt P00533 25-645, limits assumed); test: ELISA, NEM conjugate, 10 nM
[2] = target: T1, EGFR (form used in the assay not stated); test: ELISA, NEM conjugate, 100 nM
[3] = target: T1, EGFR (form used in the assay not stated); test: ELISA, NEM conjugate, 500 nM

Binder | binding relative to P54AR4-83v2 parent [1] | binding relative to P54AR4-83v2 parent [2] | binding relative to P54AR4-83v2 parent [3]
B1 | 0.34 ratio | 0.88 ratio | 0.82 ratio
B2 | 0.95 ratio | 1.06 ratio | 0.95 ratio
B3 | 0.94 ratio | 1.05 ratio | 1.01 ratio
B4 | 0.98 ratio | 1.09 ratio | 0.97 ratio
B5 | 0.84 ratio | 1.02 ratio | 0.9 ratio
B6 | 0.02 ratio | 0.2 ratio | 0.4 ratio
B7 | 0.7 ratio | 0.97 ratio | 0.91 ratio
B8 | 0.9 ratio | 1.08 ratio | 0.95 ratio
B9 | 1.11 ratio | 1.27 ratio | 1.15 ratio
B10 | 0.89 ratio | 1.07 ratio | 0.93 ratio
B11 | 0.9 ratio | 1 ratio | 0.9 ratio
B12 | 0.68 ratio | 1.04 ratio | 0.92 ratio
B13 | 0.91 ratio | 1.02 ratio | 0.91 ratio
B14 | 0 ratio | 0.07 ratio | 0.23 ratio
B15 | 0.04 ratio | 0.34 ratio | 0.62 ratio
B16 | 0.84 ratio | 0.99 ratio | 0.9 ratio
